Reference: US20210130485A1

Target: FcγRs
Assay: cell-based or functional assay

Substance: cis-LALA modified Fc polypeptide dimer fused to an anti-BACE1 Fab (bispecific antibody)
- pSyk levels in primary human microglial cells on polypeptide-coated plates (pSyk sandwich immunoassay): 3 fold
